The text below walks through data of PMC6895265.

For the data set, the target named is TCF4 bHLH domain (Homo sapiens, UniProt P15884 565-624). Put plainly: ITC.
Sequence of TCF4 bHLH domain (P15884 565-624): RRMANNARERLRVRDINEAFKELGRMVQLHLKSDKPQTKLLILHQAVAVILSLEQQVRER

B1: 12-mer TA-flanked, X=H (dsDNA)
DNA 1: ATACACGTGTAT
DNA 2: ATACACGTGTAT
modifications: 5hmC at C4 and C6 of both strands
As for B1, the binding result is “no binding”.

B2: 12-mer TA-flanked, X=M (dsDNA)
DNA 1: ATACACGTGTAT
DNA 2: ATACACGTGTAT
modifications: 5mC at C4 and C6 of both strands
With B2, the binding result is recorded as “no binding”.
